The DeepSol protein solubility set

test: soluble on expression in E. coli; label from the status in PepcDB or PDB records

Sequence | soluble on expression in E. coli
MAHHHHHHMFVRSFCFLRKYGSKSKTPDLKTSFTKTTNFRKAEKISITTTDGEIVKGRGKIRRRTHSALKEAIGAMEHPAIWLWYPWRMNPEPPTPHMPQRRALKNVHGAVFNDLTPVQKKRQEQMLYGVNIPETRQMKFEEQHPLLAGALRKLEGQPKGFPFWYRKYPTRRHAYEYRFSIPVEMLDGYNDDVKKALSKGMMSIQEKQFAQEAMYMERYAEHDFDTTSPAVLAVKRALKCRVLRNHLLTNPHNNIIKTVLANTERKLNHALRRLRKVDFKKYWEIIRDHDVQDILQPPNLVTYRQGSYWKYDWNAGLAISTNLADVMDPRGLNGCVETGRSRSEVARDLGLSYTRPLHENEKKQLSHQAVYYERLAKFKMEQPEAARAMERERFVRKFSGMFVKMDIRSGAPDFPSTYRRLLGTKVVRWASKRHGPN | not soluble
MAHHHHHHMSEEKGAYLVFDNASNGTLFIVWKKEKVENALMFIKPTKEVPEFKFVNRNGKNELIRNLQSDKKLFYSGICQFVKEAKDIKGKLTLLQHFDSSFPIKVDLYFLKGSKVMPLNTGEPFVVQDIDAMSVLPKGSSSLKVKTMAKDMFVSRGNTEGASISF | not soluble
MGSDKIHHHHHHMAYPNGKLSEEKVFKDPVHRYVHVRDKLIWDLIGTREFQRLRRIKQLGTTYLTFHGAEHSRFNHSLGVYEIVRRMVDDVFKGRPEWDDSERELCLAAALLHDLGHGPFSHSFEKVFHLDHEDFTRGIILGDTEVNQVLRKVSPGFPQDVAEVIAKTYKNKQVVSLISSQIDADRMDYLQRDAYYTGVSYGHFDMERILRVMRPREDQIVIKESGMHAVEDYIMSRYQMYWQVYFHPVTRSAEVILTKILHRAKQLHDEGYVFTHAPVHFYSIFEGKLTLEDYVKLDESIILYYFQAWEDEEDAILSDLCRRFINRQLFQYVEFNPNEEMSAYFELTSLFKEAGIDPSYYLVVDSSSDLPYDFYRPGEEEERLPIHLLTQNGQIKELSRQSAIVESISGKRRTDHKLYYPKDLICDGTKHPEAKMKIRQLLGLT | not soluble
MSLELEAKLAQANEQIKELSKREERVRIARDLHDTLGHTLSLLTLKSQLIQRLAASDPERTKLEAKEMETSSRSALKQVRELVSDMRTVTITEELVNIQHILRAGNITFQYEGADDFSVISPVTQNIISMCMREAVTNIIKHSKATHCAITISQFADKMRIVIRDDGKGAPKEKMFGNGLWGMEERLMLIEGGLTVSDHNGTVVALTIPLIKKAEEGHHHHHH | soluble
MERSRDFLLQAKRDLEQARLSLREGFFEWAAFAAQQAAEKAVKAVFQRLGAVAWGHSVAGLLEELAQKLPVPEALLDAASELDKAYIPSRYPDALPEGAPFQRYRRGEAERLLGHAEAVYAYCEGVLSQMDEGGAPPPHRGGA | soluble
MGSDKIHHHHHHMTLDNPVANKFSIAASQYKQHDVLQRITAKQLLDNAPLFGTLLDVGAGPGTSFNAFNDVEQVVAVDIAHGMLNQLTKQYPDYLPICSDAQALGLQSASIDSIYSNLALQWCQNLPEAFAEFHRVLRQNGECYLSVVVDGSLAELKTLGFRVNQFNSVSAIKAAFIASQDSPNDWLNIDIQVKSISVYFDDLRSLLYSIKGVGASFAQQGENNATHHHPLTKQQWQQRIALAETMRTDKGIPLTYQIAYIRAKRG | not soluble
MGSDKIHHHHHHMMENFPKPVVVVSKCLGFDSCRYNGDIIDAPFVDKLRSHVTFVPVCPEVEIGLGVPRKPIRIVSDKGITTLYQPATGKDFTGTMRSFVDDFLGSLTEVDGFLLKNRSPSCGVGDVKIHAGFDEGARMFRGSGFLGGAVLERFAGLPVEDEGRIRNFTIREHFLTRLFLFARFREVKKSGSMRGLVDFHSLQKLLLMGYNQAQMRLLGKIVANHEKADWNTMITRYEEQLKRALANPPRFTAMINVLLHAFGGFSNVLAKEEKAFFLDLIEEYRDERIPLSALLQVLRGWSIRFRNDYLLGQTFLQPYPGQLSKITDSGKGREP | not soluble
MKKQLCMIALVGATAFGTTGTSWSLDGPPPPEPPPMGKGQEHFLERMASVLKLTDAQQAQIEALISTDAEQNAPLHRQLAENERALREATTAASLDEATVRALAATKGNLMTEMIVSRAKLRNAINAILTAEQRELADRLDPLKYGPPRPRPDRPGMELEHHHHHH | soluble
MAGDPMRFQKIPMNIYEKFHRTFSGSNQDTFNVCSKCGGACEHNKIGTLLPGEKEYMAKKMGMSLSEFKLKYLDVLKMDDGTLIHVLKLGELCPFLNTETELCECRDFKPVICKIYPVVFTVESGKVKFSIDDWCQLSRKKVCRNYFESVIPLLYRLPVPVEWFRHVVSYDDLYFDYDQLRESRKGKSRYAVFTLKELLNFQKEELACHEIETYEPETGRMELYEIKVTSPNIDFCSEIEEPTFLEHHHHHH | soluble
MSLRGESSGLMAYKAEDIYFTLFNGLHGSAHGHASTGGFTLQLQGDDLFSDSGRYSYVNKSERLQLKECASHNTMFIAENPHTLVSDTWGYDKLPTPLFQQIKELSVGFFAECGWLDKADQNPMIFERSFIYLKSINSVVIIDSFAGQKETEITSTYNLAPSINCQKEAHRFALTTNKHKYTLLFAGGQTQQSVAKGSEIYNQLNEHPRLSNKFCYKTGKEIQATVISPLEDIQITPIKVSQTGENEQFCQAKGFRIIAGSEKFDLFVMREDIVKGNKLLVSEYGQFFYGRLVLIDQKEAKIRIKEGHHHHHH | soluble
MGSDKIHHHHHHMVRLRPYRSCDAKYIVTWISSEEEFVKWCANLITYPFTEESMNKIQESFENNEKGWLFTAIDKKGTPIGFMSMSKADYENDSVHLGFIIVDSSKRSSGFGKQMINQAIKYAFEILNVSRVTLKVFDNNSTAHYCYQNVGFVDEKYMEKEFPYKDEMWGCYCMAIQK | not soluble
MGSDKIHHHHHHMHLLFVTSIVPDGALASGYEIANAAIIAALRRAGARVTVIGFTWPGKVTADPENTVVLGEIDVRTESASALRKLAWVRKAMLSGLTFASVKLRAVSEHEVEAALEQAGPFDGYVLNSVQFAGAFEKLFEDKPSIFVAHNVEHLSARENEAAAGGVFQRLLFRREARLLKVVEERLCRRARFVFTLAEEDRAALGVASNDRSAVLPLVTGARAPVRNGPRRIDCDAALIGTWTWQPNRIGLDWFLGKVVPHLRPGFRIRIAGHMPSGVTSAHPGVEFVGRVADARAFVCGAAVIPLISTAGSGVQLKTIETFELGLPSVATSRSLRGIGHRPDNCVVTDDPAGFARALEAAAADIRDVDGGAFYRQQVKALDAAIRYGLSKLGAVRQEVLA | not soluble
MGARGKFDQFDDGKIKLASSLTSKAAANALQTIIEKYNIVKSGKDYPIEITQIAGGYDGGRTDLQTRVSVKDKTNFYNLILNYPDLVSVLARSGMELLFDKVNVDKLEPNFLKFNEQISGVAKSGNYGIPVSLSTDILVLNGPVLHYILNSAKKEEANSQVKSQIKTSQIQAKGSLTIDTDENTKSLWEKIQNSAKANGETNQKGRKAAKSNKTALVQLKNGADTTTNEENKDTKTSDDKVKQTWGDYVEKDDGLKNYTFRASVFENWHDFLDFSTRVAKSFTEKVSNITNKKGTDIQGVLGVDSSPNVLFASVFAAGGGNYENFFYKLKDGRADFSNFKNKGSSYQNLQSVFKDLEHHHHHH | not soluble
GSKKHSVLHLVPVNITSKADSDVTEVMWQPVLRRGRGLEAQGDIVRVWDTGIYLLYSQVLFHDVTFTMGQVVSREGQGRRETLFRCIRSMPSDPDRAYNSCYSAGVFHLHQGDIITVKIPRANAKLSLSPHGTFLGFVKL | soluble
MPAEPQKSTEAGSVAPEKKLKACCACPETKRVRDACIIENGEEKCGKLIEAHKACMRAAGFNI | soluble
MGSDKIHHHHHHMMSVQTTKLDAVPLGDRAPILEMRGISQIFPGVKALDGVNIALYPGEVTALIGENGAGKSTLVKILTGIYRPNEGEIVIDGSPVTFADAQAAIDAGVTAIHQETVLFDELSVAENIFLGHAPKTRFGFIDWNGINTKARALMDRLESKIDPTIRLKDLSIAQRHLVAIARALSVEARIVIMDEPTAALSRKEIDDLFRIVEGLKRDGKAILFISHKFDEVYEIAENYAVFRDGKMVGAGRLQSTPQDEIVRLMVGRDVHDAFPKIDVSIGAAVLSVSRYCHDTEFRDISFDLRKGEILGFYGLIGAGRSELCQSLFGITHPASGTVTLEGRALDIRSPADAIAAGIVYVPEERGRHGLALQMPIYQNMSLPSLARVSARGFLKVVNELALARHYAERLDLRAAALSVPVGTLSGGNQQKVVIGKWLATKPKVIILDEPTKGIDIGSKAAVHGFISELAAEGLSIIMISSELPEILGMSDRVMVMREGLQAGIFEREALTPEVLVRAATGNA | not soluble
MKMMPSKLQKNKQRLRNDPLNQNKGKPDLNTTLPIRQTASIFKQPVTKVTNHPSNKVKSDPQRMNEQPRQLFWEKRLQGLSASDVTEQIIKTMELPKGLQGVGPGSNDETLLSAVASALHTSSAPITGQVSAAVEKNPAVWLNTSQPLCKAFIVTDEDIRKQEERVQQVRKKLEEALMADILSRAADTEEMDIEMDSGDEALEHHHHHH | soluble
MAHHHHHHMGTLEAQTQGPGSMKNYRIESDSFGEIQIEEKFYWGAQTQRSLNNFKISKQKMPKILIRALAILKKCAAQVNYEFGDLEYKIATSIDKAIDRILAGEFEDNFPLVVWQTGSGTQTNMNMNEVIASIANEELTGKKGGKFPVHPNDHVNKGQSSNDSFPTAMHIATVLATKQQLIPALNNLLTYLQDKSKDWDKIIKIGRTHLQDATPLTLKQEFSGYITQIEYALERIEDALKKVYLLAQGGTAVGTGINSKIGFDIKFAQKVAEFTQQPFKTAPNKFESLAAHDALVEFSGTLNTIAVSLMKIANDIRLLGSGPRCGLGELHLPENEPGSSIMPGKVNPTQVEALTMVCTQVMGNHVTVTIAGSNGHLELNVFKPVIIYNILQSIELLSDSVNSFVTHCVKGLEPNIARINTLRDKSLMLVTVLNPHIGYDNAAKIAKEAHKYGITLKEAAKKLNFLSEEEFDKIVVPEKMIS | soluble
MAHHHHHHMSDNFFIPTFEHIYEQSIPPPLIKHSRKCKNYNKKRKNIIKYTSQDICVEQRNYDKENKEHKYVCINFHTFNKKCYHKNIRLLDHTHLDFTLGESLMYLLNAIIEVISKLKEGKEYKWNIKGKLINSKKENNIQIVYIENAFLSFKSIVLHAPLLKIKSIDI | not soluble
MVSYKLTYFDGRGAGELCRQIFAAAEQKYEDNRLTDEEWEKFKAAGKTPYNQLPMLEVDGKPLAQSHAMARYLAREFGFNGKSRWEEAQVNSLADQYKDYYAEARPYLAVKLGYTEGDAEALYTSVYLPVFKKHYGFFVNALKASGSGFLVGNSLTFIDLLVAQHSADLLGREKSDLFNDVPEMKAHSEKVQSIPQIKKWIETRPASDW | not soluble
MGSDKIHHHHHHMLSVPPDKSITHRALILSALAETESTLYNLLRCLDTERTHDILEKLGTRFEGDWEKMKVFPKPFAEPIEPLFCGNSGTTTRLMSGVLASYEMFTVLYGDPSLSRRPMRRVIEPLEMMGARFMARQNNYLPMAIKGNHLSGISYKTPVASAQVKSAVLLAGLRASGRTIVIEPAKSRDHTERMLKNLGVPVEVEGTRVVLEPATFRGFTMKVPGDISSAAFFVVLGAIHPNARITVTDVGLNPTRTGLLEVMKLMGANLEWEITEENLEPIGTVRVETSPNLKGVVVPEHLVPLMIDELPLVALLGVFAEGETVVRNAEELRKKESDRIRVLVENFKRLGVEIEEFKDGFKIVGKQSIKGGSVDPEGDHRMAMLFSIAGLVSEEGVDVKDHECVAVSFPNFYELLERVVIS | not soluble
